T1: LcrH_(1–168), class II chaperone LcrH from Y. pestis (Y. pestis, UniProt P21207 1-168)
T1 construct: also called LcrH/SycD
T1 sequence: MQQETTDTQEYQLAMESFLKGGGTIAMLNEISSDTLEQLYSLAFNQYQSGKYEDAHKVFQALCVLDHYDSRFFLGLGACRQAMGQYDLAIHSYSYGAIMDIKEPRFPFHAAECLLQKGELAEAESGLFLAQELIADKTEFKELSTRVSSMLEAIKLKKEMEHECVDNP


Legend:
[1] = molecular target: T1, LcrH_(1–168), class II chaperone LcrH …; assay: ITC; details: both partners purified
LcrH = molecular target: LcrH; parameters: method as in PMID 23233673; details: unbound chaperone weak homodimer; read-out: dimerization KD; cited from earlier work

Row | Molecule | Kd [1] [µM] | dH [1] [kcal/mol] | Kd (LcrH) [µM]
1 | QGVQLPAPLA (source: synthetic peptide) [YopB_(48–57) 10 mer N-terminal anchor peptide of the major translocator YopB] | 155 | -10.5 | –
2 | QVPELIKPSQ (source: synthetic peptide) [YopD_(56–65) 10 mer N-terminal anchor peptide of the minor translocator YopD] | 82 | -12.2 | –
3 | LcrH: class II chaperone from Yersina Sp., forms weak homodimers when unbound (protein) MQQETTDTQEYQLAMESFLKGGGTIAMLNEISSDTLEQLYSLAFNQYQSGKYEDAHKVFQALCVLDHYDSRFFLGLGACRQAMGQYDLAIHSYSYGAIMDIKEPRFPFHAAECLLQKGELAEAESGLFLAQELIADKTEFKELSTRVSSMLEAIKLKKEMEHECVDNP | – | – | ~15

Reference: PMC10116596 (Biochemistry, 2023)
